Results reported in a protein production outcome set (Wang et al. 2014).

Test: label from the status in PepcDB records

Sequence | protein production
MIGIVMLSKIANIDAARQGLDLKVKVLSLNKKTIKNDRGETTYFYGIIGDDTGTVSFTAWSFPAAVKSGDVVEIKNCYSSLYNGKIRIYVDSRSQVVLKPDEYLEVKRTVELVKLRDLSLTTPYVSVIGRISGIKEKNYDSDRGSKIVYQGFIEDETAKVRISSFGKPLKDGEIVRVENARVSQYNGYMGISIGENSSIDNVQAQIEVGSRPIFIAEIKSPIGGVTITGFAVSVGQGSRIFTKCSICKKILEDGKCKDHPRAPVYLDIFGYFLLSDGTGSLTCYLNKDSFLPYIKMDTEEFKSQAFSMNPNMLIKKNILGKCLSVTGDLRLRDDKITMNASSIKEADADSVKDIEKTIQEEFQLEHHHHHH | failed
MIGKHFIITGATSGLGFAITNELLQRGAHVTILARNIDKFNRIKENYFKPEHINVIKCDLMQRKDIESLQKFLNTPINGFIYSSGVGYFKSISEHSTREVVETYEVNLTNFNLLYKVIQPQLVKAAYIVGISSQAALVSQANAAHYGASKAGFSAVLNALRLEQPELKVLNVQPGPIDTPFQKNADPTLKYFKNYRHMMIQPQQLAKQIVEGIILNKIEINQPSWMQIMLKFYQLCPRTLEKLCPNLFKNKV | failed
MIHLVSLLALAFAVSLDSFGVGLTYGLRKMKIPFKSLLFIAGCSAVSILIAMGFGMTIQQYLSPAIAESLGGIILILIGCWALYQAFRPAKNGHKTKDDHVILNFEIKMLGVVIRILRKPMVADFDNSGAITGREAVILGIALSLDAFGAGIGAALIGFHPLYMAVSVAVMSALFVSLGMKSGYRFADSYWIKRFSFIPGLLLVLIGVFNLMM | failed
MIHSRTILVPTLLFQLALALPLAAGADSRCDDAKRLAATIPVQADGDTTRKTEDVVLESCADGAAGYFVRGLRAERAGRHDEAIKDYREALRLEPAFPRAQGNLGLALLAKGSHDDAVVELTRAISSDPDPGYHHGLAMIFGQRKIYSLALYHYAEAAKGLPADPVIPTELAALYREMGKVSDAEKQYRKALSLSPSHEEARVGLASLYMAEGRTDRAIEELKQAQIASPGNKEVSSLLAEAYEKKGDRQAADYQSLLAGKQRGVLSDERLRRGDELMQAKEYAKAAEEFKAALREKPDWPEALMRLAEAQTAAGFDDEAITSYKELIRLKLGTGDTHYNLGVLYERKGLIDEAVVEYKQAIHSSPDNGDARRRLADIYALRGSYPQAIEQYRELLKKGDNNPVLHLKLARALLGAKNPKEAMASYQDALKIAPDNLEARRELAALYRKGNQNEEAEKQYKEILRIKKDDAEARNILTALYVKSKKYDELITLLKDGVELAPNDPASHYKLGLIYEFKKDYDAAEQEYKKAVELKGDHAKSLNALGRIYLKTGKISEAKGALEAAKKADPGMEETAVLLSNIKEELSPEPPRYSKKGRKGKASKEAKKSRASKKKSSKKGAKATSKKSSTKSGGKAKKAKKSH | failed
MIIADNIKQFHSIRNSLIKQQKIGFVPTMGALHNGHISLIKKAKSENDVVIVSIFVNPTQFNNPNDYQTYPNQLQQDIQILASLDVDVLFNPSEKDIYPDGNLLRIEPKLEIANILEGKSRPGHFSGMLTVVLKLLQITKPNNLYLGEKDYQQVMLIKQLVKDFFINTKIIVCPTQRQPSGLPLSSRNKNLTSTDIEIANKIYEILRQDDFSNLEELTNKINSTGAKLQYIQKLNNRIFLAFYIGKVRLIDNFLKETGPSC | not failed
MIIDTPLADRYPHAMKNQDESGDGWESLCERCGLCCFEKIEDENGTVFFTATPCRYLDVTTRQCVIYDKRFDINPECVKLTEELVRTLPWLHDDCAYRKALGVRLSKVRMNGRNKGKRG | failed
MIIEGPVIKFGDKIDTDIIIPARYLKYTDPQYLAQHVMEPLDPEFYKKASKGVIIVAGKVFGMGSSREQAAIALKAAGVKAVVAESFARIFYRNAINNGLPVITLPNSTKEIDENSYVKIDVETGEILVGNKVLKGKGITGMALEILQAGGIMEYLKKMQTVNRN | failed
MIIEYNKLGTILYSRISHKQLYNIFHYSYHEVRLLVYNKYLPIPKQFNDEFWTVEKVEHIRYLSLTGKPYKIFNEDMNSLRVLDKVRFKLDKATSISLTPKANLELEFSGIYMKSPLYLGDMSYGALSGNPNIAIATAADLTETLAGTGEGGLHPEVAKHKRIFVQWASARFGVDIRVLTAGMGVVIKIGQGAKPGIGGHLPGNKVTEPISLTRRIPIGIDAISPAPHHDIYSIEDLGQRIEALKEATGRPVFVKVAATNYIPYIVSGIARMGADGVIIDGHGAGTGATPVVIRDNVGIPIELAIASADKILRREGLRDKFTIIAAGRVSSATDAAKLFALGADIVSVGTGALIAMGCVMVHKCHVGSCPTGLTAKIDGTRVVDTEFGVKMLVNFINGFSLELANILDNLGLNNIRELRGRRDLLYGHGLSKDTLETLGIDGTEDEANPKLGELWNRRIIAYMHELMNKGNPVITSMGSTAPPDVEKPARIIDWLRSDGAQVTRPSIDPYREDVDTSFYLKGGEIYLSLPIIFDITEAPLEYKEAFSWSALALSSAVFDYETIDKYAEVFISSDGRGIARWSRNEIYENSYLLIPADENVIDEVIGMGVQGFIIDEDSGNSDLELVVSALDTKLKEVGVRNHYDILAKSSRLRHSADAFKLILLGADSVIMPYFILEKAIGEGNKGNLKEKAFSLITGMKKEIALLAGAAGVYSVQSTLTGNRELLRSINLNHSIRKALRIKPAGSL | failed
MIIGIDVGGTNTDAAIVSDEIKTIKLPNEAGIGGILKEISKEANLIEEKVVVSTSWPLNLIISKFSESRTLSLVIPGPGLNYSEYGEVLKGYVNHRGDVVEDIDEYEIAAIFRENSYDNVAISSKFSVRNGSLEDRVAEIVRNYV | failed
MIIGNCLILKDFSSEPFWGAVEIENGTIKRVLQGEVKVDLDLSGKLVMPALFNTHTHAPMTLLRGVAEDLSFEEWLFSKVLPIEDRLTEKMAYYGTILAQMEMARHGIAGFVDMYFHEEWIAKAVRDFGMRALLTRGLVDSNGDDGGRLEENLKLYNEWNGFEGRIFVGFGPHSPYLCSEEYLKRVFDTAKSLNAPVTIHLYETSKEEYDLEDILNIGLKEVKTIAAHCVHLPERYFGVLKDIPFFVSHNPASNLKLGNGIAPVQRMIEHGMKVTLGTDGAASNNSLNLFFEMRLASLLQKAQNPRNLDVNTCLKMVTYDGAQAMGFKSGKIEEGWNADLVVIDLDLPEMFPVQNIKNHLVHAFSGEVFATMVAGKWIYFDGEYPTIDSEEVKRELARIEKELYSS | not failed
MIIHIRRTDEKQRWLFFSTLLNATLAVAKLGWGWMMGSTLVVADGIHSISDVFGALLIFLALFFAAHKSERFPYGLHKLEDMAAVLGGLGILYAGYEIIHSVFFEAGIKTPEAIWTTIGFILAIVFIQYTFYFFELKAAQRLGSPGVKADAVNWLGDIGAGMIVVIGLVAHHYKVPYAQEVSVIIIVLMILKGAYDVLKEGLLSLLDAADIEMNDTIRNIVMAEPDITNIKRLNVRKSGSVYFADIELSIAEVATAKAHKSIDEVVNRLHEEINTLEAVTIHYEPDHPPYRTVVRLLDKDKKHLSIHFGQTAWLEITHIEADNKQISKEFVKNSAVIAPKGKAFRLVAYLLSIHTDTIVMGNAELDENILTLFEALNIEVKKEKNDET | failed
MIIIMAGGKSSRMGREKPVLKIAGKEMLLWVYEQAEAVGEVLVALSRHTPRTRELCLREGIEFVDTPGRGYVKDVQWLLREFGPFISLSSDIPFVKSSDIYSLLKEFDGKVSLTGVLPLEVVPKDLTPYSYMGYAIVGINGVAKEGEKFFVFSNPLLALNVNTPRELELAKRVAEIIRVRGIRLEHHHHHH | not failed
MIILPKTLYEEMLNHCLNSLPIEACGLLGGVIEDEKRIVKKVYLLTNVDQSPEHFSMDPLEQFAAVKDMRKNGWVLLGNFHSHPTTPARPSEEDKRLAFDKSLSYLILSLMDEKNPVLKSFRIYESYVEEEEIQIILEHHHHHH | failed
MIIRDQLILSIDNDLRDLIKARDIGVIYVYREETGEPEPGPSIEDIDLPEPLLEALKKRGIRRLYRFQYDAYKSILNGENVVITAGTGTGKTEAFLLPILSKIYEKRTPNPQAMLVYPTKALARDQLQRINDYLGYGVFSAAVYDGDTPRRIRQKISANPPDIVVTNPDMIHVGLVLSPTIRRFVKASQFMVIDELHVYEGVFGSNVKCVFERINKYRRNNPPQYIGSSATIGNPREHAETLFGVPVKVIEGPLRRRGIAYHVLVSAGKLSRWTVTAALASVLARRGLRFIVFVDSQQMAELIARIAWRSYGVDIMVHRAGLPADERKMIESKLRAGEISGVAATPTLELGIDIGFLDAVIMAAPPPSFAKYLQRAGRAGRRGRKGYVFTVLADDPIDAYYERNPKRYFEQEIPPLYMDPENEEVLRIHLLALLLEQGRIRRDELKRAWLRVAERLRYERLVAWVGPYIYPNYRLARKIFMEYMSIRGSGPQVVIYDVDEKNIVGYRELPQAVLDLHPDAVYLLNRRVYKSIEIDVDKKIARVKRLPDDTPYYTRPLYTVDLVDYSILASRTSSRGIPLAYAWVKLSINVEGYIVRNYWETEKAGIKYWFDHPITYTYNTKALLLKYPENPEWDYMSNAEAFHAIEHALISAARPVCGAALGEMGGISYPSGDIVIYDGAPGGSGLAKLLFERFEKAEEIAYEIVSKCDCEDGCPRCIYSPYCGNNNQVLSRRKATYVLGNILKRGAVKVMEPIKNRYGKPIV | failed
MIIRNGCLEDLQQVISIEQINFSEAEAASKKAMQERLTIMTDTFLVAEINGRLAGYIEGPVIKGRYLTDDLFHKVSEFPVRVGGFIGITSLSIHPDFKGQGIGTALLAAMKDLVVSQERDGISLTCHDDLISFYEMNGFKDEGESDSKHGGSLWYNMIWNNPTRSIC | failed
MIIRYATPDDIEDMVSIFIDAYNFPGPRESVKSSFEISLEVQPDGCLLAFLKDEPVGMGCIFFYNKQAWIGLMGVKKAYQRRGIGTEVFRRLLEIGRRKVDTIRLDASSQGYGLYKKFKFVDEYRTVRYELMERPIKRVEGVVEVNKIPNWVKEIDKKAFGDDRIRVLEAYMRRGARLLCAENEGFGLVYRGKIGPLVADSPRVAEKILLKAFQLGAREIIIPEVNKDALELIKIFKPSQVTSCMRMRLGSKIEEKVDIYYGILAYAKG | not failed
MIITIARQCGCGGHEVARILANKLGMELFDKKKLLEEANQLGQAEEHSNFFNEVPINSLLYGIAMGFGNTKPMDKSLKLVKAITENKDAIIIGRCANIIYKDSKDVTSVYLFADKEFRIKYLMERDGISEKEAEKYIKEVDEKRTSFHKYCTDTVWGDAKEYQLCLDTGKIGFEKTAELIMNYINAKKES | failed
MIITLFVMVSGNKVKYEGSGKSGLWMSNLEKSDKTSIGPNYFLNLYWQGSKKEEKWTVVERITLYVDGEKYQDDNVDEYDLSEYTGDEMPGGGRMEDHISTFDYMPEDEVIGHDVLVKVEWRTGQKKQTEAIKLHKKPWYKKLEHHHHHH | failed
MIITQGPQFQGKASKRLHVMAKPIGAVCNIDCSYCYYLSKEDLLEYKKGCSPQMDDETLETYIRQYIEGQNTPEIIFSWQGGEPTLLGLDYFKKIVEFQKKYQPEGILISNDLQTNGTLLTDKWCEFLAENNFLVGLSIDGPEMLHNAYRTNKAGRGTFKQVMNAVELLHKHNVKFATLTCVNNLTSRNPLEVYRFLRDV | failed
MIKAYFGAETFTLNKDFAYILVIGTTDVSLIPGLTIAGATPELTHFTPAADAEYVILGKCKSINTIPVSPTGIPTPALLTRASLSFTKSLKIVVNAGSRITPKIPYIDLQGEPGKDIRKQALSIEKVNIIIENGIKLGEELSNEYELIMIGESIPAGTTTAMATLLALGYDAMDKVSSASPDNPKELKRKVVEEALRNLPTDPLQRLAKVSDPVLLGVAGISLGFRGKILLAGGTQMTAAAAIVNEFDKSKLKDIIIGTTKWIVEDKSADMLSLAKQVGVKVLASMLDLSISIHEGIRTYEKGYVKEGVGAGGSTIMAFIRGVSNSTLVRKIDELYSELVGSNNLNT | failed
MIKDRFLQLIQLLISLFLIMGALGIGITIQKFTGVSVPGSVIGMLVLFFSMTLGLVKVDWVKPGATLFIRYMILLFVPISVGLMQHFDMLLANALPIIASAVGGSLIVLVSLAWLLDYLLKEKH | failed
